B1: ADVa001 (ssDNA)
DNA: AGCAGCACAGAGGTCAGATGGTGTGTGTGTGTGTGTGTGTGCCTATGCGTGCTACCGTGACCTATGCGTGCTACCGTGAA
B2: ADVa014 (ssDNA)
DNA: AGCAGCACAGAGGTCAGATGTGTTGTCCCGGGGCCCTATGCGTGCTACCGTGAATAGCGTCCTATGCGTGCTACCGTGAA
B3: ADVa011 (ssDNA)
DNA: AGCAGCACAGAGGTCAGATGGGGTTGTCGGTGTTTGCGGGCCTATGCGTGCTACCGTGAACCTATGCGTGCTACCGTGAA
B4: ADVa012 (ssDNA)
DNA: AGCAGCACAGAGGTCAGATGAGCTAGTGCCTATGCGTGCTACCGTGAATAGCGTCAGCAGCCTATGCGTGCTACCGTGAA

Molecular target: AMDV VP2 (Aleutian mink disease virus, UniProt A0A168PAM8 200-588)
Experiment: ELONA
Conditions: protein: recombinant; tags: His

Row | Binder | Kd [nM]
1 | B1 | 566 ± 127
2 | B2 | 247 ± 62.5
3 | B3 | 2090 ± 754
4 | B4 | 930 ± 285
